Experiments:
[1] = target: SARS-CoV-2 Omicron BA.2 spike receptor-binding domain (SARS-CoV-2 Omicron BA.2, strain); assay: BLI
[2] = target: SARS-CoV-2 Omicron BA.5 spike receptor-binding domain (SARS-CoV-2 Omicron BA.5, N440K | L452R | F486V); assay: BLI

B1: MO1 monoclonal antibody (recombinant human IgG) (antibody, V domains shown)
VH: EVQLVESGGGMVQPGRSLRLSCAASGFTFDDYAMHWVRQIPGKGLEWVSGISWNSGDIGYADSVKGRFTISRDNAKNSLHLQMNSLRAEDTALYYCAKDKTYDSPGYFLNSFDYWGQGTLVTVSS
VL: DIQMTQSPSSLSASVGDRVTITCRASQGISSYLVWYQQKPGKAPKFLIYAASTLQSGVPSRFSGSGSGTDFTLTISSLQPEDFATYYCQQLYSYPITFGQGTRLEIK
Question: Which results are given for B1?
Answer: Kd [1]: 3.3 nM; Kd [2]: 11 nM

Reference: paper PMC10308935 (Journal of Virology, 2023)
